The text below walks through data of patent publication US20250057930A1, “ANAPLASTIC LYMPHOMA KINASE (ALK) CANCER VACCINES AND METHODS OF USE THEREOF” (The Children's Medical Center Corporation, priority 2022, published 2025).

The assay has as its system H2-Dd expression. Briefly: H2-Dd surface expression on MHC-I^low lung tumor escaper cell lines (flow cytometry). It is filed as cell-based, mouse. The note with it: tumor cells stimulated in vitro with IFN-γ. As for the experimental part:
To uncover the mechanisms that would explain this resistance to treatment, ex vivo escaped tumors were isolated from each treatment group. […] To understand whether the observed H2-Dd downregulation was sufficient to impair tumor rejection, tumor cells with high H2-Dd isolated from untreated mice or tumor cells with low H2-Dd isolated from ALK vaccinated mice and treated with ICI were injected. Treatment with ICI induced rejection of tumors with high H2-Dd expression (FIGS. 6D-6E), consistent with previous experiments (FIG. 3E), but not of escaped tumors with low H2-Dd expression (FIGS. 6F-6G). Finally, it was asked whether H2-Dd expression could be restored by Stimulator of IFN genes (STING) signaling that can increase MHC-I expression in other models of lung cancer.
Allophycocyanin (APC)-conjugates H-2D^d-[…] (SEQ ID NO: 22) Dextramer reagents were obtained from Immudex (Immudex, Denmark). […] After washing step, cells were ready to be acquired. When referred, also PD-1 (clone RMP1-30; BV421-PD-1, BD Pharmingen™, USA) expression was evaluated together with dextramer staining, being added together with FITC-CD8. H2-Dd MHC-I expression was measured on relapsed tumors after treatment. […] All cells were acquired in a BD Celesta flow cytometer (BD Bioscience, USA) and analyzed by using the FlowJo software (FlowJo LCC, USA). […]
In general terms: A flow cytometer gives signals particle by particle.

B1: IFN-γ: Recombinant murine IFN-γ (R&D Systems) (protein, UniProt P01580 23-155, looked up)
Interferon gamma: HGTVIESLESLNNYFNSSGIDVEEKSLFLDIWRNWQKDGDMKILQSQIISFYLRLFEVLKDNQAISNNISVIESHLITTFFSNSKAKKDAFMSIAKFEVNNPQVQRQAFNELIRVVHQLLPESSLRKRKRSRC
Take B1: the H2-Dd expression entry is “H2-Dd expression was restored”.
